The data set in a line: label from the status in PepcDB records.
With “MTLISRILGLVRDVVIASLLGAGAMSDVFLFANRIPNFLRRLFAEGAFSKAFVPVLAEYNADNDLDKTREFIAKVSGTLGLLVTVVTLVAMLISPIIAALFGTGWFIDWFNDGPDAQKFTQASLLLKITFPYLWFITFIALSGAVLNTIGKFGVMAFSPVLLNVAMISMALFGADYFEQPDIALAWGIFLGGLLQFLFQIPFMIKERLLVKPKWAWKDEGVTKVRRLMIPALFGVSVTQINLLLNQVIASFLVTGSITWLYYSDRLIEFPLGLFGIAISTVVLPNLSRITKKKALNEEQRAIAFKQTLDWGVRMVVALGIPAMVGIAILAQPLIMTIFMRGKFVLADVIATSHALWIMCLGLNSYMLISVLANGFYARQNTKTPVKIGIIATIANICFGVLAIPFGYLGLAMASALSAAVNASLLYYNLVKEQAYCLSKKTVIFILKVAISACAMGVLVSYFSPTLTDWYAMKMWLKVHWLVWLISLAAISYFAVLMVLGIRKQDFRA”, the protein production result is listed as “failed”. Under “MTLKLIGAGFGRTGTWSTFAALNRLGLPCYHMQEVIMNKANKGHLDFWRKVANSPPGSQHDWNRVFANYTATVDNPGCCVWKELLAAYPDAKVLLTLHPRGAEAWYESTIDTIYFTENVWQFKILEWLTPFGWKFGDMSRKLIWGRTLDGVMNDRAKAVARYNTYVEQVKAAVPPHKLLVYKVTEGWAPLCDFLGVALPNEPFPNLNDRETIKKIIRDIIKGSYIMLGLAIAAIVAVVAALWWWLG” stands “failed”; under “MTLLRDHDLARAFDHASHTYDGLTALNPGYRTGLLRSARRLALPADGAGLHLLDLGCGTGASTRALLRAAPRARITAVDASAGMLRRALVKPWPARVRFLHLTAEEFATTREDEGPFDAVFAAYLFRNVTDPDAVLRAVRQLLRPGGRFAAHEYSLSGSPGHRALWSAVCRGVVIPAGTLTGDRTLYRHLRRSVVAFDTAPEFAARLTRAGLTSVRVAPVAGWQTGIVHTFLARNGGPTTTEERVL”, “failed”; under “MTLSFFRPRARKVTAAVLLMTWLAPVSPLALAQPASVPAAPAGAAAAEQVQSNLNRSVQIGRQSPYLQKDATIIDAPTYELPDMGDPSTAALSPEMERRLGDRVMRQIRRDPDYVPDPLLSDYLNDIGYRLIEAARRQHVAGSTSASSFELFAVRDPGINAFALPGGYIGVNTGTLVATESESELASVLGHEIGHVLQRHIARGIDKSGESMWIALASILLAGLAATKSGDAAQALAVGGQAAAVSNQLAFSRGAEREADRVGFTLLTGAGYNPDGMPDFFRRLQRVSSIADTGAVPGYARTHPLTGERIADMEDRARGLPHPRQPQRPAFGFAKARARVLQETSTSAYLDVRNAMRSQLASAPDAPAEKRAALWYGIAVAEQLAGQLDPAEQALLEARRLYGNIPGLTSGSPSLDVTAIELARARNRVPEALTMARAALAAYPLSRAVGITYAQTLLAAGRAGDAIPYLQDKAREDTAQPIWWDMLARAYADQGKRVEQHRALAEKYARDGAWGAAVEQLKLARDAGDADFYTLSEVDARLHQMERQYREEKQEEKALPK”, “failed”. Then “MTLSKQLKTYITERFKLNYQDTWSCETVDAVAEDVLPEKYIKNSPLEHKILNTFTYYNDELHEISIYPFLCYLDKELIAIGYLDNFDLDFIFLNDTHQIIIDERYLLQKGGELEHHHHHH”, with “failed”; and “MTLTMGFIGFGKSANRYHLPYVNTRKNIKVKTIFARQINEELAAPYEEKGVSFTTNLDELLNDKEIQVVTVCTPAHTHYELAKKVILAGKSVIVEKPFCDTVEHAKELLALGREKGVVVMPYQNRRFDGDFLAVKQVVEQGFLGDIVEVESHIDYFRPGSINHEGPKEEGSFYSLGIHTMDRMISLFGRPDTVTYDIRNNEVDGAVDNYFDVGLHYGNQLKIKLKTNHVVAKDYPRFIVHGTNGSFIKYGEDQQENDLKAGIMPESAGFGEDSPMYYGIAKYRNANGDWIEKQIKTPLGDYGRFYDAAYETIVNGAPKLVKDEEAVTNIEILENGFAAPSPSVYKLEALNLNE”, with “failed”. Under “MTLTPEAEIALFLRRLKWAAVIVGVLWVVSLLAPILTPFVLALLLAWLGDPLVDRIERAGRSRNVAVVLVFVLATLLFVLALMILVPMIERQIMTLIDALPQMRNWAIGTAIPWLEAKTGMQLMAWLDPERLIDWIRSHWEQAGGAAKTLFGYVSRSGFAMVTWVINLALLPILAFYFLRDWDRLVERVAAVIPRAYIGTASRLAQESNDVLGGFIRGQFLVMLALGAIYATGMSIIGLNLGLLIGIIAGLISFIPYLGATTGIVLALLAAIVQAQGLDLKLLIGVGVVFTVGQLLESYVLTPRIVGDKIGLHPVAVIFAVMAGGQLFGFLGMLLALPVAAVANVLLRYAHEQYTRSDLYAGERAGIVLRSTPERSVIIDPSKDADRL” stands “failed”; under “MTLVEFPAITFAAVVCWAVGSLLQIPAKNSKVSGPLSWLFLFSGTLVLVWFLASYWIALDRPPLRTLGETRLWYATLIPVVGFLVEYRYKIGWLKYYCMGLATVFLGINYMHPDVFEKALMPALQSPWFVPHVVVYLVGYVLLAASAVSGWHNVFLNFRGKRSAKGESMAHYLALLGFVLLTFGLIFGALWAKEAWGHYWTWDPKETWAFISWLAYLGYLHLVACKTDPRKLQWYLGLAFFVLLVCWFGVNYLPSAQNSVHTYSGAS”, “failed”. Turning to “MTMAVGTFKQSRFQLPLPRLSVMDRYLFVELFLPFIFGMGMFTSLALSIGTLFDLVRRVTESGLPMDIAVKILFLKMPEFVVLAFPMSMLLASLMAYSRLSSDSELIALRSIGVSIYRLVVPALLFGIVVTGIAFVFNDRITPAASYEALATLDRAIHQDRPPRQEQNIIYPEYGMVRQPDGNEKNILKRLFYAEEFNGSEMKGLTILDRTQSGVNQVLTAERASWNISENTWDFYDGTVYLIAPDGSYRNIVRFRHQQLALPRAPLDLASQERKDGEMTIAQSRRYLEVLRLSGDDKKVRKLEVRIQKKYALPFVCFVFGLIGAAIGVRPQNTNKATSFGICVGLIFFYYLLSFLSESMGIWGALDPFTAAWLPNFLGLIAGTILLVQSSRLR”, the protein production entry was “failed”.

On to “MTMDNFSIRPMKRSELDVVIDWAAIEGWNPGIYDAECFYQADQCGFFVGELNNELVASISAVAYSQHFAVIGFYIVKEQFRGRGFGMKMWRTAMAYLGSERNISLDGVIAQQENYKKSGFQIAYRHIRYQV”, for which the protein production entry is given as “failed”. Then “MTMEALQFLLAAPPGAYDPVARTIEDEPRPSQPPTSALALDIRGLRKSFGDNDVLRGIDLHIPAGQFVTIVGRSGCGKSTLLRLIAGLETPTAGHIVFGEDKLPGDVRVMFQEPRLLPWARVLANVEVGLGTERNSPDARARADAALIEVGLDDKRGEWPAVLSGGQKQRVALARALVSRPRVLAFDEPLGALDALTRIAMQRLLEQVWQAQGFTAILVTHDVAEAVALADRVLVIEDGRIAKDLPIDLPRPRQRGSAELAALEGEILRDLLKGAEDTFEL”, with “failed”; and “MTMIEPDPADFEPIHPYSLARISHVALQAGAVLAQSGASVRVVHEGARMVAEGLGVEVLGMRSGYASFEITLARGHHSFTRMTQIGPHGVNHRLDFAVRDLLKRAARGDMTPDAIEAELKRLQSETPRHPPWLVAIATGAACAAFGRLLGSDWLSFGPVLAAASIGQGVRHLLLGRRFNVFVVAAIVGCISAALGGLGARLIGSSTTELAMMASILLLVPGVPSTNAQTDVMDGYPTMGSARAVTVIMIMVFAVTGLWLAEFVLRIHT”, with “failed”. Then “MTMITFSARLAPFQPETVWTLEAGTLIETRGRIERRFPLSSLTRYSLSLAPDGRRRVLLVVFGRRRLLIPSQSYVGPGRFEDRLAAFSVLARALAAVGADLSPRARFGLARLEARTALTFVMGLLAFGAASTLLFSLTAGMVAVGVDLAARMAFVLILMVAALPWLARPADFDPRDPPADLLP”, with “failed”; and “MTMKKSEITVALAGNANVGKSVIFNQLTGSNQIVGNWPGKTVERAEGYLKFQGRDIHIIDLPGIYSFSTYSMEEIVSRDFIINEGPDVVINVLDASVLERNLFFTLQLMEMEVPMVICINQVDMARQKGITIDDEKLEKVLGVPVVSTVAVKGRGLQELLRKTVEVADKKTLPRIIEYGEEIETRIGKLMDALPEIPEGYSARWVAIKLLENDPQITAMMPEDVRKLASELAAEIESIHGEPAFSVITSERYAISSMIAAGAQRQEEIKTSLSERLDGFLTHPVYGYISSVLVVGGLLLWTFVVGEFLSDTLTGIFGFFQPVDPKFSGSIESIIWNGAFGGIVAGLTLVIPFVIPFYLMLSYIENSGLLTRVAFMMDAFMRKIGLHGKALIPLILGYGCSVPAIDSTRILETHRERLLAAFAISFAPCAARTILILGLVALFVNVWWAIGLYALDLLIIFIMGKVALKALPGETTGLIMEMHSLKMPSFRVIARQTWTRTRSLIYLVFPIYIIGSALIQLLYALGWLNPISAFMAPLTVGWLKLPVFAGILLILGAVRKEFILLGLVSLVGTNIGAALTAPQILVLTLVGMLYFPCLSTIAILAREFSWRSTSIITLANLGTALFLGGLFARILPLIF”, with “failed”; and “MTMPRLASSRWWYIMPIVFVTYSLAYLDRANYGFAAASGMADDLRITPGLSSLLGALFFLGYFFFQVPGAIYAEKRSVKKLIFVSLILWGGLATLTGMVANVYLLIGIRFLLGVVEAAVMPAMLVYLCHWFTRAERSRANTFLILGNPVTILWMSVVSGYLVEHFSWRWMFIIEGLPAVIWAFIWWRLVDDRPRQAAWLSGSEKRDLEDALAAEQQGIKPVKNYREAFRSPKVIVLSLQYFCWSIGVYGFVLWLPSILKHGANIDIIEAGWLSALPYLAAVIAMLGVSWASDRLQKRKRFVWPPLLIASIAFYGSYALGSEHFWLSYALLVLAGACMYAPYGPFFAIVPEVLPANVAGGAMALINSMGALGSFSGSWLVGYLNGITGGPGASYLFMSGALLLSVLLTVFLNPHADKREPDAARAHASRRAAPAHP”, with “failed”. Then “MTMRVVTAPAEPPQGASHVAPSFTRMDTSVLGRWWWTVDRPMLGAVALLIAAGVFLILAAGPPAAGRIGAQTYHFVQRQFLFVPVAGVLVIAVSLLPVLWVRRIAVLLFALFMVLLLGTLFVSSDIKGASRWIAIGPFALQPSEFVKPTFAVVTAWMFASARTQDRFPGNLIAMLLMAVVGALLVAQPDFGMTMVVACVWGTQFFLAGLSLVWVVLLAAVGMIGAVIAYFALPHVQSRVDRFLDPASGDQYQIRQSMKAFMEGGLFGRGPGEGRVKEFLPDAHTDFIFAVAGEEFGLFLCLTIVALFAFLIIRSAIRLRREQNLFVLIAAGGLLTQLGLQALINMASSLSLIPTKGMTLPFISYGGSSLLSTAVAMGMVLALTRRRAHGERT”, with “failed”; and “MTMSTTREIAFLIARILLGVILIAHGWDKFAITGLEGVTGFFDSLGIPAAGIAAIAAAVVELLGGILIILGVFTRIVAAFVAIDMLFAALFAHVSSGIFVTNNGWELTGAIGAGALLLIAVGAGAWSIDGVLAKRKA”, with “failed”. Regarding “MTNKAIKATNEELQQVYNDIPKAYDRANRFISFNQDVKWRADLVKTILKYCKRPKLILDVASGKGELSYTFKKIYKDNSNYEIILSDYAENMLKMALIKDDKVLCSFDALPFREKTFDIVMSSFALHASDNIEDVIREITRVSRKIVGFIAMGKPDSWVRRIYLSIYLKYIMPYIAVLGGAKARDFKYIYYIYERVPTNSQHKRIFEKYIDIKVYEERALNLFYFVVGFPKE”, the protein production entry is listed as “failed”.

Regarding “MTNKITERITGHTELIGLIATPIRHSLSPTMHNEAFAKLGLDYVYLAFEVGDKELKDVVQGFRAMNLRGWNVSMPNKTNIHKYLDKLSPAAELVGAVNTVVNDDGVLTGHITDGTGYMRALKEAGHDIIGKKMTICGAGGAATAICIQAALDGVKEISIFNRKDDFYANAEKTVEKINSKTDCKAQLFDIEDHEQLRKEIAESVIFTNATGVGMKPFEGETLLPSADMLRPELIVSDVVYKPTKTRLLEIAEEQGCQTLNGLGMMLWQGAKAFEIWTHKEMPVDYIKEILF”, the protein production result was “not failed”.

The values are drawn from a protein production outcome set (Wang et al. 2014).
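Also: failed if final PepcDB status was selected cloned or expressed and not failed if soluble or beyond.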
